# Experimental data published in the supplement of paper PMC10126150.
# ± gives the standard deviation of the averaged measurements.
# Tested on: ATP
# Test: switch fluorescence ratio, 500 uM ATP over buffer (Cy3 cluster intensity, sum of 5 cycles each) (fold (ratio)); higher = stronger signal-on switching upon ATP binding; sequences stand for … in TCGTCGGCAGCGTCAGATGTGTATAAGAGACAGTTTTTTTTTTTTTTTTTTTTTTTTT…TC
# Conditions: aptamer strand: ATP DNA aptamer (quencher-CACCTGGGGGAGTATTGCGGAGGAAGG + anchor), 100 nM annealed; ATP concentration: 500 uM
# Outline: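 The fluorescence ratio divides summed target-cycle Cy3 intensity by summed buffer-cycle Cy3 intensity for each cluster and is averaged per switch-domain sequence. Cy3-labelled switching-strand clusters on a modified Illumina MiSeq flow-cell were annealed to 100 nM quencher-labelled ATP aptamer, then imaged in selection buffer and again after 15 min with 500 uM ATP at 22 °C. Five such cycles were run, with NaOH stripping and re-annealing between them, and clusters outside 100-1000 RFU were excluded.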
# 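Also: ATP exposure 15 min at 22 °C before imaging.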
row,Sequence,switch fluorescence ratio
1,AATAGGAAGG,1.01 ± 0.046
2,AGTTAGACTT,1.02 ± 0.064
3,ACTTCCGGG,1.33 ± 0.27
4,GTTGGTTTGG,1.04 ± 0.013
5,AGATGGCTGG,1.02 ± 0.012
6,AGGAATGGCT,0.985 ± 0.017
7,TGTGAAAATT,1.01 ± 0.051
8,GAACGACCGC,1.34 ± 0.065
9,TTAACCGTTT,1.09 ± 0.08
10,TCTGTTTACG,0.996 ± 0.016
11,AGGGATTCCG,1 ± 0.032
12,TTACGATTTT,0.993 ± 0.039
13,AGGGGGTCTG,0.968 ± 0.017
14,AATCATAGTA,1.011 ± 0.0089
15,AATGGGTTTT,0.976 ± 0.011
16,AAGGGAGGGA,1.01 ± 0.036
17,AAATTGGTCC,1.02 ± 0.016
18,CAGGACACCT,1.17 ± 0.034
19,TATCTATCTT,0.994 ± 0.0066
20,AGACGGATGC,1.05 ± 0.019
21,TAGTGTTGTG,0.971 ± 0.055
22,TCACCTTATT,1.03 ± 0.022
23,TTTTAGTACT,0.99 ± 0.036

row,Sequence,switch fluorescence ratio
1,GGGCAAAGGT,1.09 ± 0.16
2,TGAGGTAGGA,0.9781 ± 0.0014
3,CTGAGTCGGA,0.983 ± 0.033
4,ATCTTTGGTG,1.03 ± 0.022
5,ATCGCATGGG,1.03 ± 0.013
6,GTTGTTGAAT,0.992 ± 0.026
7,CCAGTAAGTG,1.09 ± 0.03
8,CTGTATTGGG,0.977 ± 0.013
9,TATGGCCGCC,1.01 ± 0.043
10,CCGTGTTTTT,0.988 ± 0.032
11,AACCTGGTAT,1.01 ± 0.035
12,GCGATGTGAC,1.22 ± 0.059
13,TATTCCTTGG,0.966 ± 0.012
14,AATTTAAATT,1 ± 0.037
15,TGTTTTTCTA,1 ± 0.044
16,TTATTTTGGG,0.99 ± 0.037
17,TTTTGGTCCG,1.034 ± 0.0074
18,GAATTAAGCT,1 ± 0.015
19,GATAATTTTT,0.9884 ± 0.0084
20,TGGGCCTATT,0.976 ± 0.063
21,GGATAAATGC,1.02 ± 0.043
22,ATAATGGGTT,1.05 ± 0.058
23,TTTTTTAGGA,1.01 ± 0.019

row,Sequence,switch fluorescence ratio
1,TTGGAACATA,0.986 ± 0.03
2,TTATGATAGG,1.016 ± 0.0079
3,CGAAGCGGGG,1.08 ± 0.054
4,TATTAGAGCG,1.02 ± 0.025
5,ATAACCAGTT,0.988 ± 0.014
6,TTTGAATTTT,0.998 ± 0.024
7,CTCTGCTCGC,4.15 ± 0.55
8,GAGGTGGGTG,1.015 ± 0.0056
9,GGTAAAGGAT,0.991 ± 0.039
10,GTTGTTTAGC,0.974 ± 0.022
11,GCGGGTCACC,0.992 ± 0.01
12,CGATGCGGGG,1.011 ± 0.0095
13,ATATGCGGGC,1.02 ± 0.05
14,GAGCAGTCGG,0.982 ± 0.036
15,AGGGGGCCTG,0.992 ± 0.01
16,TAAAATACGT,0.995 ± 0.042
17,GAGCTAGAAA,1.05 ± 0.065
18,GACTGCTATA,1.44 ± 0.043
19,CCTTCCTGTG,3.62 ± 0.024
20,CTTGCAAACG,1.201 ± 0.0043
21,CTTTTGGGCG,1.01 ± 0.056
22,TCTTTCATGT,1.02 ± 0.02
23,CAGGGACTGG,1 ± 0.072

row,Sequence,switch fluorescence ratio
1,TTAACAGTGG,0.989 ± 0.032
2,GGGATATAGT,0.9696 ± 0.0044
3,TGTTTTAAAT,0.978 ± 0.03
4,ACGGCAAGGG,1.15 ± 0.063
5,ACCATCAGCG,1.038 ± 0.0019
6,CCTGGAGCGG,1.19 ± 0.037
7,TCTCGGGATT,1 ± 0.013
8,TGGTATTGTG,0.947 ± 0.021
9,CGTCCTGGGG,1.12 ± 0.048
10,TATATGGCGA,0.995 ± 0.031
11,TAATACGAGT,1.02 ± 0.014
12,GCAGGGGCTC,1 ± 0.027
13,TCAAGTGGGG,1.01 ± 0.053
14,GTACTGGATT,0.988 ± 0.035
15,ACGAGGGTTG,1.01 ± 0.026
16,TTTCAGATGG,1.006 ± 0.0093
17,TGGGGTACGA,1.01 ± 0.026
18,GGGGAGTTAC,1.35 ± 0.44
19,CTACCGCCTA,1.39 ± 0.048
20,ACTTAAGTAG,0.987 ± 0.04
21,GGCCGTATCT,1.03 ± 0.044
22,CCTTAAGGCG,1.023 ± 0.0026
23,TTATGGCAGA,1.009 ± 0.01

row,Sequence,switch fluorescence ratio
1,TTGGGGTTCA,0.9752 ± 0.0084
2,ATTTCGGCAC,0.9959 ± 0.0091
3,CAGGTCCTTT,1.01 ± 0.025
4,CGGGTATACT,1.1 ± 0.092
5,ATTCGTTTTT,1 ± 0.021
6,GGGTACGTTT,0.97231 ± 0.00073
7,CGCTTTTGGA,1 ± 0.036
8,TTAAGAGACG,1.06 ± 0.07
9,GCTACGATGT,1.01 ± 0.049
10,GTTTTGAGTT,1 ± 0.021
11,TTTTTCCTTG,1.04 ± 0.018
12,ATACTCATAT,1.01 ± 0.015
13,TGAGTGACG,1.0136 ± 0.00054
14,TTCTGGTTTT,0.9727 ± 0.0026
15,TTTAGGCTTG,1.02 ± 0.017
16,AGTGTTATTT,0.993 ± 0.011
17,AAGGGAATTA,0.986 ± 0.015
18,GTTGGCCCGG,0.997 ± 0.022
19,TAGCATGTTC,1.09 ± 0.049
20,CGTGCTTTTT,1.01 ± 0.018
21,ATGGTTTGGT,0.997 ± 0.024
22,GGTTGATAAT,1.002 ± 0.0043
23,TTCCCGTCAG,1.022 ± 0.0017

row,Sequence,switch fluorescence ratio
1,TTTAGTTACT,1.06 ± 0.022
2,CGCTGACAAG,0.9916 ± 0.0099
3,GAGAGTCTTC,0.985 ± 0.0088
4,GCTCACAGAA,1.02 ± 0.019
5,CGGGTTTGAA,0.972 ± 0.024
6,GTTTGAAGGG,0.974 ± 0.05
7,GTGTGAGGTT,0.989 ± 0.019
8,GGTGGGGCCC,0.983 ± 0.032
9,GGTTGGAATT,1.01 ± 0.025
10,TAAGCGATCA,1.02 ± 0.018
11,AATTTAGTAT,0.996 ± 0.022
12,CGAGTTTTCG,1 ± 0.03
13,TTTTTGACAC,1.26 ± 0.38
14,TAGCATTCTA,1.013 ± 0.0054
15,AAGCGTTAGC,1.01 ± 0.014
16,TTGATTCTGA,0.992 ± 0.034
17,CTGAGTTGGG,0.9793 ± 0.0042
18,GGATTAAAGG,1.03 ± 0.013
19,CATAGGAGGG,0.977 ± 0.056
20,ACCGGGAAAG,1.062 ± 0.0096
21,AAATTTATAT,1.02 ± 0.015
22,TTATAGATGG,0.971 ± 0.077
23,GTGAAAGGGC,1.01 ± 0.034

row,Sequence,switch fluorescence ratio
1,ATATGAGGGA,1.01 ± 0.026
2,TATTTTGGGA,1.02 ± 0.021
3,TCTTGTAAGT,0.992 ± 0.023
4,GTCCATAGGT,1.02 ± 0.013
5,TGGGAAGTTT,0.978 ± 0.013
6,AATTTTTTTG,1.04 ± 0.051
7,GAGGGTACTG,1.032 ± 0.0053
8,TATTTTTCGG,0.984 ± 0.041
9,GGAGGGGGGA,1.09 ± 0.24
10,CGAGGATAAA,0.994 ± 0.027
11,TAAGATGACG,1.13 ± 0.05
12,AGAGCGGGGT,0.998 ± 0.0091
13,GGGGATTAAT,0.99 ± 0.042
14,CGCGAGCTTT,1.015 ± 0.0032
15,GGTGGTAGGC,1 ± 0.046
16,TTTCGTAATT,1 ± 0.024
17,TCGGTATTTT,1.01 ± 0.026
18,TAATATTTT,0.966 ± 0.035
19,AGGTATTATC,0.968 ± 0.014
